± gives the standard deviation.
Assay: collision cross section of modified peptide (TIMS, N2, iRT-aligned); higher = larger / more extended gas-phase ion
Procedure, shortened: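 Synthetic peptide pools (~100 fmol/µL in 2% acetonitrile/0.1% formic acid, iRT standard spiked 1:40) were separated on a 120-min nanoflow C18 gradient at 60 °C. They were analysed on a timsTOF Pro/HT (dda-PASEF, nitrogen, ~2.4 mbar) and identified with MaxQuant. 1/K0 was calibrated with three reference ions and aligned run-wise to the median iRT peptide deviation. Collision cross section came from the Mason-Schamp equation, averaging 1–3 technical replicates of the most abundant feature per charge state.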

[1] = charge state: 2, modification: Malonyl
[2] = charge state: 2, modification: Butyryl
[3] = charge state: 2, modification: Citrullination (R)
[4] = charge state: 3, modification: Citrullination (R)
[5] = charge state: 2, modification: hydroxyisobutyryl
[6] = charge state: 2, modification: Acetyl (K)
[7] = charge state: 2, modification: Propionyl
[8] = charge state: 2, modification: Phospho (Y)
[9] = charge state: 2, modification: Dimethyl (K)
[10] = charge state: 3, modification: Dimethyl (K)
[11] = charge state: 2, modification: Succinyl
[12] = charge state: 3, modification: Succinyl
[13] = charge state: 2, modification: Nitro (Y)
[14] = charge state: 3, modification: Butyryl
[15] = charge state: 3, modification: Acetyl (K)
[16] = charge state: 3, modification: Hydroxyproline
[17] = charge state: 2, modification: Hydroxyproline
[18] = charge state: 2, modification: Methyl (R)
[19] = charge state: 3, modification: Nitro (Y)
[20] = charge state: 2, modification: Formyl

LQAAYAGDKADDIQK [_LQAAYAGDK(Malonyl)ADDIQK_]
collision cross section [1]: 436.07 ± 1.2 Å²

DTGEKLTVAENEAETK [_DTGEK(Butyryl)LTVAENEAETK_]
collision cross section [2]: 448.65 ± 0.25 Å²

VRFHNPR [_VR(Citrullination (R))FHNPR_]
collision cross section [3]: 325.95 ± 14 Å²
collision cross section [4]: 406.17 Å²

SDSGKPYYYNSQTK [_SDSGK(Crotonyl)PYYYNSQTK_]
collision cross section (charge state: 2, modification: Crotonyl): 425.72 ± 0.29 Å²

SKLLFSNTAAQK [_SK(hydroxyisobutyryl)LLFSNTAAQK_]
collision cross section [5]: 404.35 ± 0.3 Å²

IQTKAGEATVK [_IQTK(Acetyl (K))AGEATVK_]
collision cross section [6]: 364.34 ± 0.62 Å²

DAEAAEATAEGALKAEK [_DAEAAEATAEGALK(Malonyl)AEK_]
collision cross section [1]: 425.91 ± 1 Å²
collision cross section (charge state: 3, modification: Malonyl): 541.5 Å²

GAEKTEVAEPR [_GAEK(Propionyl)TEVAEPR_]
collision cross section [7]: 373.13 ± 6.5 Å²

VDATADYICK [_VDATADY(Phospho (Y))ICK_]
collision cross section [8]: 366.93 ± 0.064 Å²

GSLEKGSPEDK [_GSLEK(Trimethyl (K))GSPEDK_]
collision cross section (charge state: 2, modification: Trimethyl (K)): 363.82 ± 0.64 Å²
collision cross section (charge state: 3, modification: Trimethyl (K)): 436.7 ± 2.4 Å²

TVSKVDDFLANEAK [_TVSK(Acetyl (K))VDDFLANEAK_]
collision cross section [6]: 417.71 ± 1.3 Å²

LLEQKTQESQK [_LLEQK(Malonyl)TQESQK_]
collision cross section [1]: 397.91 ± 0.65 Å²

GEVQVSDKER [_GEVQVSDK(Gluratylation)ER_]
collision cross section (charge state: 2, modification: Glutarylation): 368.37 ± 8.3 Å²

GFCFITYTDEEPVKK [_GFCFITYTDEEPVK(Malonyl)K_]
collision cross section [1]: 452.98 ± 0.65 Å²

LLEQKTQESQK [_LLEQK(Propionyl)TQESQK_]
collision cross section [7]: 393.54 ± 0.65 Å²

ASNAAVKLAESK [_ASNAAVK(Dimethyl (K))LAESK_]
collision cross section [9]: 387.86 ± 0.56 Å²
collision cross section [10]: 452.98 ± 1.6 Å²

TLTPASSPVSSPSKHGDR [_TLTPASSPVSSPS(HexNAc (ST))KHGDR_]
collision cross section (charge state: 3, modification: HexNAc (ST)): 519.55 ± 0.18 Å²

SGATAGAAGGRGK [_SGATAGAAGGR(Citrullination (R))GK_]
collision cross section [3]: 331.61 ± 0.28 Å²

IPQEKCILQTDVK [_IPQEK(Acetyl (K))CILQTDVK_]
collision cross section [6]: 431.12 ± 1.2 Å²

ATVASSTQKFQDLGVK [_ATVASSTQK(Succinyl)FQDLGVK_]
collision cross section [11]: 444.76 ± 1.1 Å²
collision cross section [12]: 493.48 ± 0.68 Å²

VSFLSALEEYTK [_VSFLSALEEY(Nitro (Y))TK_]
collision cross section [13]: 400.94 ± 0.73 Å²

GADFLVTEVENGGSLGSKK [_GADFLVTEVENGGSLGSK(Butyryl)K_]
collision cross section [2]: 476.08 ± 1.1 Å²
collision cross section [14]: 551.35 Å²

LAEEENKAK [_LAEEENK(Succinyl)AK_]
collision cross section [11]: 348.59 ± 0.23 Å²

DFDTALKHYDK [_DFDTALK(Propionyl)HYDK_]
collision cross section [7]: 403.21 Å²

SLGEPAAGEGSAKR [_SLGEPAAGEGSAK(Acetyl (K))R_]
collision cross section [6]: 382.38 ± 0.43 Å²
collision cross section [15]: 484.93 ± 0.63 Å²

PGPQPSAETTR [_P(Hydroxyproline)GPQPSAETTR_]
collision cross section [16]: 412.85 Å²

GHYTIGK [_GHY(Nitro (Y))TIGK_]
collision cross section [13]: 323.5 ± 0.72 Å²

VGTASVLQPVKK [_VGTASVLQPVK(GlyGly (K))K_]
collision cross section (charge state: 2, modification: GlyGly (K)): 404.53 ± 0.36 Å²
collision cross section (charge state: 3, modification: GlyGly (K)): 466.32 ± 0.78 Å²

LLIVSTTPYSEKDTK [_LLIVSTTPYSEK(hydroxyisobutyryl)DTK_]
collision cross section [5]: 461.48 ± 0.76 Å²
collision cross section (charge state: 3, modification: hydroxyisobutyryl): 486.54 ± 2.8 Å²

GEPGLPGHPGK [_GEPGLP(Hydroxyproline)GHPGK_]
collision cross section [17]: 337.36 ± 0.3 Å²

GSLGAQKLANTCFNEIEK [_GSLGAQK(hydroxyisobutyryl)LANTCFNEIEK_]
collision cross section [5]: 476.97 ± 0.8 Å²

ISALQGKLSK [_ISALQGK(Dimethyl (K))LSK_]
collision cross section [9]: 355.29 ± 0.29 Å²
collision cross section [10]: 425.26 ± 1.1 Å²

FLQEFYQDDELGK [_FLQEFY(Nitro (Y))QDDELGK_]
collision cross section [13]: 428.07 ± 1.5 Å²

SSFAYKDQNENR [_SSFAYK(hydroxyisobutyryl)DQNENR_]
collision cross section [5]: 405.04 ± 0.3 Å²

VTLEVGKVIQQGR [_VTLEVGK(Succinyl)VIQQGR_]
collision cross section [11]: 412.33 ± 0.54 Å²
collision cross section [12]: 481.23 ± 2 Å²

AAYQAAIRGVGSAQSR [_AAYQAAIR(Methyl (R))GVGSAQSR_]
collision cross section [18]: 442.78 ± 1 Å²
collision cross section (charge state: 3, modification: Methyl (R)): 510.48 ± 1.7 Å²

TLQKQSVVYGGK [_TLQK(Methyl (K))QSVVYGGK_]
collision cross section (charge state: 2, modification: Methyl (K)): 395.77 ± 1.4 Å²
collision cross section (charge state: 3, modification: Methyl (K)): 446.7 ± 4.9 Å²

SKHLQEQLNELK [_SK(Succinyl)HLQEQLNELK_]
collision cross section [11]: 419.21 ± 1.5 Å²
collision cross section [12]: 481.12 ± 2 Å²

DHLSDKESK [_DHLSDK(Propionyl)ESK_]
collision cross section [7]: 355.5 ± 0.95 Å²

LYAVHQEGNK [_LY(Nitro (Y))AVHQEGNK_]
collision cross section [13]: 359.52 ± 0.17 Å²
collision cross section [19]: 458.4 ± 0.23 Å²

SDSGKPYYYNSQTK [_SDSGK(Butyryl)PYYYNSQTK_]
collision cross section [2]: 426.68 ± 0.77 Å²

DYILEGEPGK [_DY(Phospho (Y))ILEGEPGK_]
collision cross section [8]: 357.17 ± 0.065 Å²

FSAYIKNSNPALNDNLEK [_FSAYIK(Biotin)NSNPALNDNLEK_]
collision cross section (charge state: 2, modification: Biotin): 499.7 ± 0.61 Å²
collision cross section (charge state: 3, modification: Biotin): 526.24 Å²

GEKGNPGVGTQGPR [_GEKGNP(Hydroxyproline)GVGTQGPR_]
collision cross section [17]: 371.11 ± 0.55 Å²
collision cross section [16]: 431.33 ± 1.3 Å²

DYGNSPLHR [_DY(Nitro (Y))GNSPLHR_]
collision cross section [13]: 341.59 ± 0.55 Å²
collision cross section [19]: 437.8 ± 1.2 Å²

SPSDSGYSYETIGKTTK [_SPSDSGYSYETIGK(Butyryl)TTK_]
collision cross section [2]: 455.62 ± 0.51 Å²
collision cross section [14]: 527.5 ± 2.7 Å²

DSSPTTNSKLSALQR [_DSSPTTNSK(Formyl)LSALQR_]
collision cross section [20]: 427.17 ± 1.8 Å²
collision cross section (charge state: 3, modification: Formyl): 491.37 ± 1.3 Å²

ISPVEESEDVSNK [_ISPVEES(HexNAc (ST))EDVSNK_]
collision cross section (charge state: 2, modification: HexNAc (ST)): 415.06 ± 0.62 Å²

SLFFGGKGAPLQR [_SLFFGGK(Formyl)GAPLQR_]
collision cross section [20]: 399.67 ± 0.55 Å²

AQVLAGGRGK [_AQVLAGGR(Methyl (R))GK_]
collision cross section [18]: 352.61 ± 7.6 Å²

SFDEVEGVFGRGGGR [_SFDEVEGVFGR(Citrullination (R))GGGR_]
collision cross section [3]: 404.76 ± 0.98 Å²
collision cross section [4]: 503.12 Å²

ATVASSTQKFQDLGVK [_ATVASSTQK(Malonyl)FQDLGVK_]
collision cross section [1]: 440.93 ± 1 Å²

FGTINIVHPKLGSYTK [_FGTINIVHPK(Acetyl (K))LGSYTK_]
collision cross section [6]: 467.42 ± 3.8 Å²
collision cross section [15]: 551.28 ± 1.6 Å²

VNIGQGSHPQKVK [_VNIGQGSHPQK(Propionyl)VK_]
collision cross section (charge state: 3, modification: Propionyl): 485.17 ± 0.74 Å²

GYGVIFANGNR [_GY(Nitro (Y))GVIFANGNR_]
collision cross section [13]: 360.58 ± 1.2 Å²

DYSAPVNFISAGLKK [_DYSAPVNFISAGLK(Dimethyl (K))K_]
collision cross section [9]: 457.54 ± 1.7 Å²
collision cross section [10]: 517.49 ± 1.2 Å²

SLFFGGKGAPLQR [_SLFFGGK(Dimethyl (K))GAPLQR_]
collision cross section [9]: 408.95 ± 0.54 Å²
collision cross section [10]: 451.66 ± 1.6 Å²

APEYLHR [_APEY(Phospho (Y))LHR_]
collision cross section [8]: 334.14 ± 1.5 Å²

— the supplement of paper PMC10598134
